Results from CN116199779A (BEIJING DONGFANG BIOTECH CO LTD; BEIJING JINGYI TAIXIANG …, dated 2023).
Like-named read-outs stand apart in the source and are kept apart here. Each block holds one binder with its values, some of them ahead of it.

Experiments:
THP-1细胞表面的LILRB4 [1] = target: T1, THP-1细胞表面的LILRB4 (human, UniProt Q8NHJ6 22-448); test: flow cytometry on THP-1 cells
T1 construct: whole, on cells; Endogenous LILRB4 on THP-1 cells; also called 人单核细胞白血病细胞(THP-1)表面LILRB4

LILRB4抗原 (人LILRB4蛋白胞外段) [2] = target: T2, LILRB4抗原 (人LILRB4蛋白胞外段) (human, UniProt Q8NHJ6 22-259); test: ELISA, coated LILRB4, anti-human IgG-HRP
T2 construct: extracellular domain; also called 白细胞免疫球蛋白样受体亚家族B成员4

THP-1细胞表面的LILRB4 [3] = target: T1, THP-1细胞表面的LILRB4; test: flow cytometry on THP-1 cells, FITC anti-mouse IgG
THP-1细胞表面的LILRB4 [4] = target: T1, THP-1细胞表面的LILRB4; test: flow cytometry competition on THP-1 cells; competitor FITC-labelled ApoE
LILRB1 [5] = target: T3, LILRB1 (UniProt Q8NHL6 24-461, limits assumed); test: ELISA, coated protein 100ng/well
T3 construct: construct not described
T3 sequence (Q8NHL6 24-461 limits assumed): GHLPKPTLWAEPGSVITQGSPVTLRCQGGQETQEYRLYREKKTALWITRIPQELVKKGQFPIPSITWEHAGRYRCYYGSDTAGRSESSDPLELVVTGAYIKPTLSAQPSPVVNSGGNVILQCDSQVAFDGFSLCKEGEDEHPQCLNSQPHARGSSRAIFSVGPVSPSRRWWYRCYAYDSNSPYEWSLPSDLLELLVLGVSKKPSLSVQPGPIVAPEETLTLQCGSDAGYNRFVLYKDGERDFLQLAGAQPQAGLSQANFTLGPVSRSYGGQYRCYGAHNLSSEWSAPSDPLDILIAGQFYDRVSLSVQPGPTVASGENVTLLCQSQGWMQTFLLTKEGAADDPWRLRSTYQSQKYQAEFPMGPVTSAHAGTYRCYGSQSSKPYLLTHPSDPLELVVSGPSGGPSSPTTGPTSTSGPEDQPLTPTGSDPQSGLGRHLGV

LILRB3 [6] = target: T4, LILRB3 (UniProt O75022 24-443, limits assumed); test: ELISA, coated protein 100ng/well
T4 construct: construct not described
T4 sequence (O75022 24-443 limits assumed): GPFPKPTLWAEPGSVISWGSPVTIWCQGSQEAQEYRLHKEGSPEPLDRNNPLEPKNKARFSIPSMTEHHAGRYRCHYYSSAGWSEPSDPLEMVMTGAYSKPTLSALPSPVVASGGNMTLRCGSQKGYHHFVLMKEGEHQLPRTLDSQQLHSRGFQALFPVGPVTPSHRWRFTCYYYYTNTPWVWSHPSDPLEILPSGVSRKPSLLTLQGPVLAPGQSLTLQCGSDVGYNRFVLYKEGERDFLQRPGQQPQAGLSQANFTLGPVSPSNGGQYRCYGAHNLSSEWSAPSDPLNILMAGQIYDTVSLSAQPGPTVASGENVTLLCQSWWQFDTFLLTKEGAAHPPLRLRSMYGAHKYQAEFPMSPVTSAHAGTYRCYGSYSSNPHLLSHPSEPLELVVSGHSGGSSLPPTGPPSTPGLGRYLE

LILRA5 [7] = target: T5, LILRA5 (UniProt A6NI73 42-268, limits assumed); test: ELISA, coated protein 100ng/well
T5 construct: construct not described
T5 sequence (A6NI73 42-268 limits assumed): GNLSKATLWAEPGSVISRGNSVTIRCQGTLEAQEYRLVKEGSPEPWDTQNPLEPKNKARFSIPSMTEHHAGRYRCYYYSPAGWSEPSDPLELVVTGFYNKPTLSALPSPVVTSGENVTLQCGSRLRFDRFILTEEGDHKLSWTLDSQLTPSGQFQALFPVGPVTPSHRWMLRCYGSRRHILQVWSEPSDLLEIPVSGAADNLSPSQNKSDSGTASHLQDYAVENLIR

LILRB2 [8] = target: T6, LILRB2 (UniProt Q8N423 22-460, limits assumed); test: ELISA, coated protein 100ng/well
T6 construct: construct not described
T6 sequence (Q8N423 22-460 limits assumed): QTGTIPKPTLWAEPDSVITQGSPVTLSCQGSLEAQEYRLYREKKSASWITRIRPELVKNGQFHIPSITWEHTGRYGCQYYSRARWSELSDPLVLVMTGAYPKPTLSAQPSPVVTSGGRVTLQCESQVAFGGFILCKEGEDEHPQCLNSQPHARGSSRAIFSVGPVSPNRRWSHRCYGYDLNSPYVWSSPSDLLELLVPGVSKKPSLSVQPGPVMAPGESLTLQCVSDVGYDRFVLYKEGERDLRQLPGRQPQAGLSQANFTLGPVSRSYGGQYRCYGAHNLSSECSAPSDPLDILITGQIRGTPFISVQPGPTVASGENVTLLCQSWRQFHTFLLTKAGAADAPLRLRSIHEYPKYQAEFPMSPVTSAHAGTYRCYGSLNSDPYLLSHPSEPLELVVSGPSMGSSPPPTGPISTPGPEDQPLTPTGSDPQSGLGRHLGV

LILRA3 [9] = target: T7, LILRA3 (UniProt Q8N6C8 24-439); test: ELISA, coated protein 100ng/well
T7 construct: construct not described
T7 sequence (Q8N6C8 24-439 limits assumed): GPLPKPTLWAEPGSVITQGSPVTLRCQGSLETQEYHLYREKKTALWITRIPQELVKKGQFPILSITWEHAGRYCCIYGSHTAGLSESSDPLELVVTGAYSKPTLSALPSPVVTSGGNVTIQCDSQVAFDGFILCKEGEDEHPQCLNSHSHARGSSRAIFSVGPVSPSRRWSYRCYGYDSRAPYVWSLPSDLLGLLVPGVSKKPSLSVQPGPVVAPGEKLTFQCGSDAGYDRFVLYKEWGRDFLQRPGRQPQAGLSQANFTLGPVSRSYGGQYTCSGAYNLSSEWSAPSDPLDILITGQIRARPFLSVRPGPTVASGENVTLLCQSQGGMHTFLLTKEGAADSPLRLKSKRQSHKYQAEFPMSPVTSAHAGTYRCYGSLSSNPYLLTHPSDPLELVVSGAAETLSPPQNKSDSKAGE

LILRA4 [10] = target: T8, LILRA4 (UniProt P59901 24-446, limits assumed); test: ELISA, coated protein 100ng/well
T8 construct: construct not described
T8 sequence (P59901 24-446 limits assumed): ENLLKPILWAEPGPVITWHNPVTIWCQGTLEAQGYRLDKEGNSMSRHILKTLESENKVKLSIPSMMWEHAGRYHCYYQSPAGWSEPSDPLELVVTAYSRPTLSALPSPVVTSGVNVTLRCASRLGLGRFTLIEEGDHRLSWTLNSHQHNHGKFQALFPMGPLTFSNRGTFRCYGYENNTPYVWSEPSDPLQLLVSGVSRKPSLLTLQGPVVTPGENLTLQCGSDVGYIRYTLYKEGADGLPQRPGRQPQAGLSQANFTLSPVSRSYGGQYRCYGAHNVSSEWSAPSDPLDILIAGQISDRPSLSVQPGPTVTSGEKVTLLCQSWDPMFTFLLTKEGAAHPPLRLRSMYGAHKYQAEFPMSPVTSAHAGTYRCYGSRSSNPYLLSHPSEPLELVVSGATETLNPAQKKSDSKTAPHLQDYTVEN

LILRB5 [11] = target: T9, LILRB5 (UniProt O75023 24-458, limits assumed); test: ELISA, coated protein 100ng/well
T9 construct: construct not described
T9 sequence (O75023 24-458 limits assumed): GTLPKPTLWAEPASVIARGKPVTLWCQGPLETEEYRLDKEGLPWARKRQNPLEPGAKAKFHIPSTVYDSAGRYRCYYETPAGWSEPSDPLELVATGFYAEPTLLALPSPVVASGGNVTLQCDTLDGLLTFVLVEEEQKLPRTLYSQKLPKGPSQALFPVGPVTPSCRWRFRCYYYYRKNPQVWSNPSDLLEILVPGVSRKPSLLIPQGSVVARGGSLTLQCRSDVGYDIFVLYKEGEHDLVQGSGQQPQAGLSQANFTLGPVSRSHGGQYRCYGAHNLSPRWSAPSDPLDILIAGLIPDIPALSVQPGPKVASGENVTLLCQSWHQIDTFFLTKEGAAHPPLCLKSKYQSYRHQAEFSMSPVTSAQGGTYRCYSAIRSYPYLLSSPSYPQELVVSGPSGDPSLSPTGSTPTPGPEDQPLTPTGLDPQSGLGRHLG

LILRA2 [12] = target: T10, LILRA2 (UniProt Q8N149 24-449, limits assumed); test: ELISA, coated protein 100ng/well
T10 construct: construct not described
T10 sequence (Q8N149 24-449 limits assumed): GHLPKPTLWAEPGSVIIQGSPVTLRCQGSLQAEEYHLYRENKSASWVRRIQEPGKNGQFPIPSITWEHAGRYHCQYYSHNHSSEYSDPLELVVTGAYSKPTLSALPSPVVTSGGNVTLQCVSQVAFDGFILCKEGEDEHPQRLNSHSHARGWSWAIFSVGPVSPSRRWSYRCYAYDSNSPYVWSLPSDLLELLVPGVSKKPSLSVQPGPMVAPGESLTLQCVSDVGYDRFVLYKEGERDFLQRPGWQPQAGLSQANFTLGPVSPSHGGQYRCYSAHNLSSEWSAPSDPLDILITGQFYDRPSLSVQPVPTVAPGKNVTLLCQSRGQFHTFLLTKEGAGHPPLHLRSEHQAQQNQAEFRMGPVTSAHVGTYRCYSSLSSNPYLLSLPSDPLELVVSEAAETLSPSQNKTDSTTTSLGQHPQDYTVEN

LILRA1 [13] = target: T11, LILRA1 (UniProt O75019 17-461, limits assumed); test: ELISA, coated protein 100ng/well
T11 construct: construct not described
T11 sequence (O75019 17-461 limits assumed): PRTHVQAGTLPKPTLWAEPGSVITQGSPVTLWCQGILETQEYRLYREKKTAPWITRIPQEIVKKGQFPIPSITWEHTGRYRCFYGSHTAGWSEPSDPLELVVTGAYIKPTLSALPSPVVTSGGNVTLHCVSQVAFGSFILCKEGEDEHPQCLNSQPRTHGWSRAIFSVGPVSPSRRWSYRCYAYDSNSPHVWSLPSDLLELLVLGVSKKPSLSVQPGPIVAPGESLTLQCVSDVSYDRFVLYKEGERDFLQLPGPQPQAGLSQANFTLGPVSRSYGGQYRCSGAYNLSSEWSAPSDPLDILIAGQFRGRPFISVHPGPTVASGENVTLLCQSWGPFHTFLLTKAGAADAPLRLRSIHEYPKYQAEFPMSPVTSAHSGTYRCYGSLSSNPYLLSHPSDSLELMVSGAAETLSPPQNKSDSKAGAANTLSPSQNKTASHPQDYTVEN

LILRA6 [14] = target: T12, LILRA6 (UniProt Q6PI73 24-447, limits assumed); test: ELISA, coated protein 100ng/well
T12 construct: construct not described
T12 sequence (Q6PI73 24-447 limits assumed): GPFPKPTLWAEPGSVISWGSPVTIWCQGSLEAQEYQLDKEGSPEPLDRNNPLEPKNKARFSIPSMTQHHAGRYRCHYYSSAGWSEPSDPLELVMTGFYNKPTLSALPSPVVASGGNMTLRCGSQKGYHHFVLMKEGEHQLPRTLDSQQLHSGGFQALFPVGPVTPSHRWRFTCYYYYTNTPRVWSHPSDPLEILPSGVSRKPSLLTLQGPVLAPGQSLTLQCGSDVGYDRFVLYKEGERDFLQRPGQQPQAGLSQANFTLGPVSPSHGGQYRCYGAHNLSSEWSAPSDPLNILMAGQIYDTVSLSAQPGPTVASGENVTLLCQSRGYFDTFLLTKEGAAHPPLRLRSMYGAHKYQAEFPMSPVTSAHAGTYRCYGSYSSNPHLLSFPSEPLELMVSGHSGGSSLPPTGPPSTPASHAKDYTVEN

THP-1细胞表面的LILRB4 [15] = target: T1, THP-1细胞表面的LILRB4; test: cell-based or functional assay
LILRB4抗原 (人LILRB4蛋白胞外段) [16] = target: T2, LILRB4抗原 (人LILRB4蛋白胞外段); test: ELISA, coated LILRB4, anti-mouse IgG-HRP
LILRB1 [17] = target: T3, LILRB1; test: ELISA, coated protein 100ng/well, antibody 50μg/mL
LILRB3 [18] = target: T4, LILRB3; test: ELISA, coated protein 100ng/well, antibody 50μg/mL
LILRA5 [19] = target: T5, LILRA5; test: ELISA, coated protein 100ng/well, antibody 50μg/mL
LILRB2 [20] = target: T6, LILRB2; test: ELISA, coated protein 100ng/well, antibody 50μg/mL
LILRA3 [21] = target: T7, LILRA3; test: ELISA, coated protein 100ng/well, antibody 50μg/mL
LILRA4 [22] = target: T8, LILRA4; test: ELISA, coated protein 100ng/well, antibody 50μg/mL
LILRB5 [23] = target: T9, LILRB5; test: ELISA, coated protein 100ng/well, antibody 50μg/mL
LILRA2 [24] = target: T10, LILRA2; test: ELISA, coated protein 100ng/well, antibody 50μg/mL
LILRB4抗原 (人LILRB4蛋白胞外段) [25] = target: T2, LILRB4抗原 (人LILRB4蛋白胞外段); test: ELISA, coated protein 100ng/well, antibody 50μg/mL
LILRA1 [26] = target: T11, LILRA1; test: ELISA, coated protein 100ng/well, antibody 50μg/mL
LILRA6 [27] = target: T12, LILRA6; test: ELISA, coated protein 100ng/well, antibody 50μg/mL
THP-1细胞表面的LILRB4 [28] = target: T1, THP-1细胞表面的LILRB4; test: flow cytometry competition on THP-1 cells; competitor FITC-labelled ApoE; remark: listed apart in the source
THP-1细胞表面的LILRB4 [29] = target: T1, THP-1细胞表面的LILRB4; test: cell-based or functional assay; remark: listed apart in the source
THP-1细胞表面的LILRB4 [30] = target: T1, THP-1细胞表面的LILRB4; test: cell-based or functional assay; remark: listed apart in the source

EC50 (THP-1细胞表面的LILRB4 [1]): 0.2 µg/mL
EC50 (LILRB4抗原 (人LILRB4蛋白胞外段) [2]): 0.0178 µg/mL
B1: 嵌合抗体CA-Ⅰ (MA-Ⅰ variable regions, human IgG1, Ck) (antibody)
heavy: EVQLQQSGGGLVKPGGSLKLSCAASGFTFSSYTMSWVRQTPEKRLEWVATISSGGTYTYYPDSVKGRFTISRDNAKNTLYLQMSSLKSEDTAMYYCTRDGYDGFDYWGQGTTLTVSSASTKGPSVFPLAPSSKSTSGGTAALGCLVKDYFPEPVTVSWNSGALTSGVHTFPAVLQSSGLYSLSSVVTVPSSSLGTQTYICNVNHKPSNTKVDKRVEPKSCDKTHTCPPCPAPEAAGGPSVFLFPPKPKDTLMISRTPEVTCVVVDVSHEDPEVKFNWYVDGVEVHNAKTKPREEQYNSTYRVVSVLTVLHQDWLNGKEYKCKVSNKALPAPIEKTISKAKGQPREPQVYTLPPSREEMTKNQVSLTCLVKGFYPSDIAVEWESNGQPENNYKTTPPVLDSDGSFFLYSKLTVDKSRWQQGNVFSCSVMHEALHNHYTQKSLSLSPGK
light: DIVMTQTTLSLPVSPGDQASISCRSSQSLAHSNGNTYLHWYLQKPGQSPKLLIYKVSNRFSGVPDRFSGSGSGTDFTLKISRVEAEDLGVYFCSQSTLVPTFGGGTKLEIKRTVAAPSVFIFPPSDEQLKSGTASVVCLLNNFYPREAKVQWKVDNALQSGNSQESVTEQDSKDSTYSLSSTLTLSKADYEKHKVYACEVTHQGLSSPVTKSFNRGEC
notes: also called CA-I

EC50 (LILRB4抗原 (人LILRB4蛋白胞外段) [2]): 0.343 µg/mL
B2: 人源化抗体HB-Ⅰ (human IgG1, Ck) (antibody, V domains shown)
VH: QVQLVQSGAEVKKPGASVKVSCKASGYTFTNYWMHWVRQAPGQGLEWIGEINPSNGRTNYNEKFKTRATLTVDTSTSTAYMELSSLRSEDTAVYYCARWGQLGLREGYYAVDYWGQGTLVTVSS
VL: DIQMTQSPSSLSASVGDRVTITCRASQDISNYLNWYQQKPGKAPKLLIYYTSRLHSGVPSRFSGSGSGTDYTFTISSLQPEDIATYYCQQGNTLPPTFGGGTKVEIKR
notes: also called HB-I

The remaining lines, values behind:

B3: MB-Ⅰ 鼠源抗LILRB4单克隆抗体 (mouse IgG1, Ck) (antibody)
heavy: QVQLQESGAELVKPGASVKLSCKASGYTFTNYWMHWVKQRPGQGLEWIGEINPSNGRTNYNEKFKTKATLTVDKSSSTAYMQLSSLTSEDSAVYYCARWGQLGLREGYYAVDYWGQGTSVTVSSAKTTPPSVYPLAPGSAAQTNSMVTLGCLVKGYFPEPVTVTWNSGSLSSGVHTFPAVLQSDLYTLSSSVTVPSSTWPSETVTCNVAHPASSTKVDKKIVPRDCGCKPCICTVPEVSSVFIFPPKPKDVLTITLTPKVTCVVVDISKDDPEVQFSWFVDDVEVHTAQTQPREEQFNSTFRSVSELPIMHQDWLNGKEFKCRVNSAAFPAPIEKTISKTKGRPKAPQVYTIPPPKEQMAKDKVSLTCMITDFFPEDITVEWQWNGQPAENYKNTQPIMDTDGSYFVYSKLNVQKSNWEAGNTFTCSVLHEGLHNHHTEKSLSHSPG
light: DIVMTQSPSSLSASLGDRVTISCRASQDISNYLNWYQQKPDGTVKLLIYYTSRLHSGVPSRFSGSGSGTDYSLTISNLEQEDIATYFCQQGNTLPPTFGGGTKLEIKADAAPTVSIFPPSSEQLTSGGASVVCFLNNFYPKDINVKWKIDGSERQNGVLNSWTDQDSKDSTYSMSSTLTLTKDEYERHNSYTCEATHKTSTSPIVKSFNRNEC
notes: also called MB-I; 鼠源抗体MB-Ⅰ
EC50 (THP-1细胞表面的LILRB4 [3]): 0.351 µg/mL
IC50 (THP-1细胞表面的LILRB4 [4]): 0.44 µg/mL
binding result (LILRB1 [5]): no binding (tested: 50μg/mL)
binding result (LILRB3 [6]): no binding (tested: 50μg/mL)
binding result (LILRA5 [7]): no binding (tested: 50μg/mL)
binding result (LILRB2 [8]): no binding (tested: 50μg/mL)
binding result (LILRA3 [9]): no binding (tested: 50μg/mL)
binding result (LILRA4 [10]): no binding (tested: 50μg/mL)
binding result (LILRB5 [11]): no binding (tested: 50μg/mL)
binding result (LILRA2 [12]): no binding (tested: 50μg/mL)
binding result (LILRA1 [13]): no binding (tested: 50μg/mL)
binding result (LILRA6 [14]): no binding (tested: 50μg/mL)
IC50 of inhibition of ARG1 secretion by THP-1 cells with ApoE (arginase activity) (THP-1细胞表面的LILRB4 [15]): 46 µg/mL
EC50 (LILRB4抗原 (人LILRB4蛋白胞外段) [16]): 0.0128 µg/mL
OD 450nm/630nm (LILRB1 [17]): 0.038 OD
OD 450nm/630nm (LILRB3 [18]): 0.022 OD
OD 450nm/630nm (LILRA5 [19]): 0.045 OD
OD 450nm/630nm (LILRB2 [20]): 0.055 OD
OD 450nm/630nm (LILRA3 [21]): 0.056 OD
OD 450nm/630nm (LILRA4 [22]): 0.028 OD
OD 450nm/630nm (LILRB5 [23]): 0.016 OD
OD 450nm/630nm (LILRA2 [24]): 0.024 OD
OD 450nm/630nm (LILRB4抗原 (人LILRB4蛋白胞外段) [25]): 2.9 OD
OD 450nm/630nm (LILRA1 [26]): 0.022 OD
OD 450nm/630nm (LILRA6 [27]): 0.026 OD

B4: 人源化抗体HA-Ⅱ (human IgG1, Ck) (antibody, V domains shown)
VH: EVQLVESGGGLVKPGGSLRLSCAASGFTFSSYTMSWVRQAPGKGLEWVATISSGGTYTYYPDSVKGRFTISRDNAKNSLYLQMNSLRAEDTAVYYCARDGYDGFDYWGQGTTVTVSS
VL: DIVMTQTPLSLSVTPGQPASISCRSSQSLAHSNGNTYLHWYLQKPGQSPQLLIYKVSNRFSGVPDRFSGSGSGTDFTLKISRVEAEDVGVYFCSQSTHVPTFGGGTKVEIKR
notes: also called HA-II
EC50 (THP-1细胞表面的LILRB4 [1]): 0.179 µg/mL
IC50 (THP-1细胞表面的LILRB4 [28]): 2.75 µg/mL
IC50 of inhibition of ARG1 secretion by THP-1 cells with ApoE (arginase activity) (THP-1细胞表面的LILRB4 [29]): 250 µg/mL
EC50 (LILRB4抗原 (人LILRB4蛋白胞外段) [2]): 0.0154 µg/mL
IC50, NF-κB luciferase reporter in THP-1-NF-κB-Luc cells stimulated with ApoE (THP-1细胞表面的LILRB4 [30]): 2.68 µg/mL
